Source: the DeepSol protein solubility set

Assay: soluble on expression in E. coli; label from the status in PepcDB or PDB records

Soluble on expression in E. coli, not soluble:
MEHRPVLETESNLVITLVADIVAAYVSNNSIRPTEVPSLIADVHAAFRKAGNADLTEVEVEKQRPAVNPKRSIFPDYLICLEDGKKFKSLKRHLMTHYGMLPEEYREKWQLDSSYPMVAPNYAKARSALAKEMGLGRKSKRKKTK
LRTITRDDWETCIDLKVARHQAHFVASNLYSLAQSRFLPGFRAVGIHHGGRMVGFALYGPDADDGHYWLYRLMIDRRYQGKGHGRAALQRIIASVRRTRRRSDRLMVAYAVDNDVARQLYRDAGFVEQGLAPWGETMACLMLPEPSHRSGKVAGAPGGRAAHGVPA
MDTLDELLPREKMLRSGIASLSDVELLALFLRTGTPGKDVMTLAKEILQHFGSLYGLLSADFAQFRGVNGIGLAKFAQLKGIAELARRYYSVRMNEESALLSPEMTREFLQSQLTGEEREIFLVIFLDAQHRVLQHSRLFSGTLNHVEVHPREIVREAIKLNASAVILAHNHPSGCAEPSKADKLITERVIKCCQFMDIRVLDHLIIGRGEYVSFAERGWI
MGSDKIHHHHHHMSTLLQHVNLTEFVDVARQLGLDPYRQLRQAGIRPTALVDPEMRVPAKSVMQLLEDSAQLAGLEDLGLRVAEARELTTLGPLWTVMREGATLRNALGAMARYLHLLNEALDLRLEEVGDTAVVRLEFLVSVDGSMRQSTEFIICLWFRLFKLLSGDAWKPRSVCFTHAAPASLATHRRVFGVPVRFHQDFDGILLSAADLDVAGTTSDTALGRHAREFLDTKLAQSDSTMPDKVRKLVFALLPTGECGAEQVARQLGIDRKTMHRHLAAYGQNYLSVVDAVRVELVTRYLKNNERPLSDVAILMGFSSLSAFSRWFATRYGCSVSAWRRQRTAPEIRR
MKKDTDCTEILVGKTASMDGSTIVARNEDGYGPINPIKFIVHEAHDQTNASYTSVTTGVTVPLPDHAYRYTATPQADQSDGQYEEAGINELNVGMSATETTATNARVLGYDPLVHDGVDEEAMVTLVLPYIKSAKEGVQRLGALIEKYGTGESNSIAFNDHDDIWLFETAGGHHWGAVRMPEDTYAIVPNQTVVQEMDLNDTDNFLGASDLVDFVEKYHLNPTPGHFNFREIFGTQSEADAYYNTPRTWYGQKLFNPEIEQNPTDQNMPLFRQPSKKLAIEDVQFFLSSHYNGTPYDPFGTFASGNAREQTRYRSIAMDRNQCSSILQIRNDVPAKQAAIQWIALGFFAYAPYVPFFTNINDTPIDYRNTTSTVSVDNVYWLSKTLSVLIEPHWHEFAETVNAYRDECQSYARGRVAATDAAIAGNPTDFLTKANSETAAEISNRTHALFDTLVKQGLLLSKTTWEKGQNLLEHHHHHH
MGSDKIHHHHHHMEANNGKMERIQEMLRMFGLSSYEAQGFAALVYHGVANADTIASTANIPRTSAYKVMESLVRKGLAKATEGRPRMFKPAKMEEIRDYYEEKLQQLFRDLKELEDNAPSRGEPQLIYTINGSQKVMEKIEEMINLTEHEIMISTPKIIEIRKQMKKPIENAIKRGVRVVFVIPPNKRVPANVIVYRRDGLIATDIVSDQIRALIAGPDLETCGYSDNPMLSMHVYQFINILINKPEIQG
MTYDLSRLTQDLPHETSEPSPKSASTLSLPPGESDQNGNTSSHEGVTPPRRRCTISRSSSIDSISGETLISEYFSSDELDKLSTALSEVTF
MPDQISVSEFVAETLEDYKAPTASSFTRTAQCRNTAAAIEEDAVTYDDVHVNFTREEWNLLHPSQKSLYKDVMLETYWNLTVIGYTWENHHIERHCQSSRRNERFSLHCQLP
MGSDKIHHHHHHMSNVDHAEIAKFEALAHRWWDRESEFKPLHDINPLRVNWIDERAGLAGKKVLDIGCGGGILSEAMAQRGASVTGIDMGEAPLAVARLHQLESGVAVDYRQITAEQMAEEMPGQFDVVTCLEMLEHVPDPASVIRACHRLVKPGGQVFLSTINRNPKAYLFAVIGAEYILQLLPRGTHDFRKFIRPSELGAWSREAGLEVKDIIGLTYNPLTKHYKLANDVDVNYMVQTKREA
MGSDKIHHHHHHAWGAKDAEVGKAWKGWKKGQFQIHLIYTGVSESMFLIFPDGTTMLLDCGDHNAVGRGKLAVPVLPNPDRHAGEWISRYVRRVNPQKDYVDYMMLTHYHSDHGGNNKFYARKETRDGKDYYLSGFSQAAEYLTFGKAFDRCWPDYNDPLPLTQEAADAFEHMKDFYDYMLAHKKMEIEKFCLGETNQIAMKKDATAYPGFSVRNICANGRIADKEGNIRDLYAERKKSNPVKFSENGMSLGMIFTYGDFKFYTAGDFSDGWELPNGKRFEIEDAIADVVEPVSVAKINHHGHKSMTDKLVAALRPRVVVNNVWDQLHTLPSVMERFYNRNLYPGERIVCPTVFPAERRAEDAGQPWLDILNPSSFDAGHVIVNVEEGGKDYSVTYLTANDESMTVKSVMRFKS

Soluble on expression in E. coli, soluble:
MSLDLFDRKAAADTLKEAPLAERMRPRTLAEYVGQEHLLGPGKLLRQLIETDQLTSLIFWGPPGSGKTTLARIIAGATKSHFIFFSAILSGIKEIREIVKEADDIRKFHGKRTILFVDEIHRFNKSQQDAFLPYVERGVFTIIGATTENPSFEVIAPLLSRCKVLVLNPLTEEEITGILRQALADKERGLGALDLAIEDDALTFMAEQAGGDARVALNTLETASRLTSNGVVSLDTAREAVQKKPLLYDKGGEEHYNVISAFIKSMRGSDPDGALYWLARMIEAGEDPIFILRRMVILASEDIGNADPRALQVAVTALQGFQLVGMPEGRIIIGQAVTYLATAPKSNASYVGIDAALAEVRKSGALPVPLHIRNAPTRLMKDLGYGTGYRYAHDYAEGYVAQDYLPDQIKGRKYYDPTGHGYEKSIKERMEWLKGKKEGHHHHHH
VAGPIAVGCYPALGPTILPSMLYAFTAEYPRASVEFREDTQNRLRTQLEGGELDVAIVYDLDLSPEWQTVPLMTREPMVVLGAEHPLAGVDGPVRLADLAEHPMVLLDAPPSTNHAMDVCREAGFAPRVAYRTANFETARAFVGRGLGWTLLLQRPRVDVTYEGLPVVVKPIAEPKPASVAVVVAWHQEATLSRVARAFIRFVTA
MPTSNTAFLIQNLPASRTAPHYRAGLDPVKGGLALQRSGGRVYISLLMGKRGFLRREASPKEVLEHCLRLAREVAPPTPKGKRGRPWRYSHALYLALLLFRAFFHLTYRETEASLQDLMEGPFPSHQSLARYALKHLDPKLLEALLERLSRELEAHLAPESSPEGEAASDEAPAHLAALSPP
MTTLSHVEALCALEQPYRADAECDRLFDAAMRELVDYHCEHSPGYRRWLEQNGFTPERLAGLSDWSQLPPIFANYFKRRLLLSTSGEDALELTSSGTTGQKSRMRYDERSIGAAQRMVDRIFDHYGWNTPQQPCNYLLLSYEPAGAITLGTAYTDQFLCKYAPVKRAVYALRHNGKGNEFDPFGAIRALQEFAAEGLPVRIFGFPAFLWFALERMRDMGLPPLALHPESLVFLGGGWKTHADQAIPKAELYRRLGEQLGLPDARCRDGYGSVEHPVPYVECTNHRFHVPSWARAWARDTATLARLPYGEAGFLHLVSPYITSSPAHSMLLSDLAVLQLAERCGCGLATDWFELLGRAGTSKSRSCAMAASELIKESLEHHHHHH
MSLPINVPSGLPAVKVLAKEGIFVMTEKRAIHQDIRPLEILILNLMPDKIKTEIQLLRLLGNTPLQVNVTLLYTETHKPKHTPIEHILKFYTTFSAVKDRKFDGFIITGAPVELLPFEEVDYWEELTEIMEWSRHNVYSTMFICWAAQAGLYYFYGIPKYELPQKLSGVYKHRVAKDSVLFRGHDDFFWAPHSRYTEVKKEDIDKVPELEILAESDEAGVYVVANKSERQIFVTGHPEYDRYTLRDEYYRDIGRNLKVPIPANYFPNDDPTKTPILTWWSHAHLFFSNWLNYCIYQKTPYRLEDIHEGHHHHHH
SLMLHAQHMPGQPGTPSLVFLHGFSGDCHEWQPVGEQFHGCSRLYIDLPGHGGSAAIPVDGFADVIRLLRATLISYNILKFWLVGYSLGGRVAMMAACQGIPGLCGLVVEGGHPGLQNEQARAERRLSDGRWAERFRHEPLTEVFHDWYQQPVFASLTAQQRQALTALRSQNNGETLAAMLEATSLAVQPDLREALNALAFPFYYLCGERDSKFRALAQEVAATCHVIRNAGHNAHRENPAGVVDSLAQILRL
ATPALRFVAVGDWGGVPNAPFHTAREMANAKEIARTVQILGADFILSLGDNFYFTGVQDINDKRFQETFEDVFSDRSLRKVPWYVLAGNHDHLGNVSAQIAYSKISKRWNFPSPFYRLHFKIPQTNVSVAIFMLDTVTLCGNSDDFLSQQPERPRDVKLARTQLSWLKKQLAAAREDYVLVAGHYPVWSIAEHGPTHCLVKQLRPLLATYGVTAYLCGHDHNLQYLQDENGVGYVLSGAGNFMDPSKRHQRKVPNGYLRFHYGTEDSLGGFAYVEISSKEMTVTYIEASGKSLFKTRLPRRARP
MADLERYLKRARGGRVVRTGFLDPEDQARLEEMARREGIRVAFFGGFPLAERKVAVLYPEEVPSVSDPVEVVLLDRPPPADLGEVLGEVEEVEEGVLAALLPEGRKALEAQGYRLLPPPEGALRPPRERVRTLVVPSLRVDAVGAKGFGVSRSYFAQGVKAGKVRLKGRPASPKDELAPGDLLFAEGLGTLRLLEVVGKTVRGNYKIKVEVER
MTTYDRNRNAITTGSRVMVSGTGHTGKILSIDTEGLTAEQIRRGKTVVVEGCEEKLAPLDLIRLGMN
VKVQPNDYVFRDLANHNQIFVKDKDPKVYNNPYYIDQVQLKDAQQTDLTSIQASFTTLDGVDKTEILKELKVTDKNQNAIQISDITLDTSKSLLIIKGDFNPKQGHFNISYNGNNVTTRQSWEFKDQLYAYSGNLGAVLNQDGSKVEASLWSPSADSVTMIIYDKDNQNRVVATTPLVKNNKGVWQTILDTKLGIKNYTGYYYLYEIKRGKDKVKILDPYAKSLAEWDSNTVNDDIKTAKAAFVNPSQLGPQNLSFAKIANFKGRQDAVIYEAHVRDFTSDQSLDGKLKNQLGTFAAFSEKLDYLQKLGVTHIQLLPVLSYFYVNEMDKSRSTAYTSSDNNYNWGYDPQSYFALSGMYSEKPKDPSARIAELKQLIHDIHKRGMGVILDVVYNHTAKTYLFEDIEPNYYHFMNEDGSPRESFGGGRLGTTHAMSRRVLVDSIKYLTSEFKVDGFRFDMMGDHDAAAIELAYKEAKAINPNMIMIGEGWRTFQGDQGKPVKPADQDWMKSTDTVGVFSDDIRNSLKSGFPNEGTPAFITGGPQSLQGIFKNIKAQPGNFEADSPGDVVQYIAAHDNLTLHDVIAKSINKDPKVAEEDIHRRLRLGNVMILTSQGTAFIHSGQEYGRTKRLLNPDYMTKVSDDKLPNKATLIEAVKEYPYFIHDSYDSSDAINHFDWAAATDNNKHPISTKTQAYTAGLITLRRSTDAFRKLSKAEIDREVSLITEVGQGDIKEKDLVIAYQTIDSKGDIYAVFVNADSKARNVLLGEKYKHLLKGQVIVDADQAGIKPISTPRGVHFEKDSLLIDPLTAIVIKVGKVAPSPKEELQADYPKTQSFKGSKTVEKVNRIANKTSITPVVSNKTDSYLTNEANLEHHHHHH
